Assay: Interaction analysis between CEA-V2122-del5 and modified biotin using Biacore T200 (single-cycle kinetics, bivalent analysis mode)
Assay type: binding
Details: analyte Psyche J-iodine
Protocol: The interaction between CEA-V2122-del5 and a modified biotin was analyzed using Biacore T200. The Psyche J-iodine described in Production Example 1 was used herein as a modified biotin.
The analysis method was specifically as follows. That is, an amine-coupling kit was used, a target value was set to be 3000 RU, and the purified CEA-V2122-del5 was immobilized on Sensor Chip CM5. With regard to the concentrations of the analytes, 2.5E−09 M was two-fold diluted, and 5 types of two-fold serial dilutions including 2.5E-09 M were prepared and used in the measurement. Regarding interaction analysis, data were obtained by single-cycle kinetics analysis. Using Biacore T200 Evaluation Software, version 2.0, the obtained data were subjected to curve fitting in a bivalent analysis mode, and the following values were obtained: ka1=6.3E+03, and kd1=8.0E−06.

[1] = CEA-V2122-del5 immobilized on Sensor Chip CM5, 5 two-fold serial dilutions from 2.5E-09 M, curve fitting in bivalent analysis mode

KD=kd1/ka1 (evaluation value from the bivalent analysis): 1.3E−09
B1: CEA-V2122-del5: fusion of scFv-type anti-CEACAM5 antibody and mutant streptavidin V2122 lacking 11 C-terminal amino acids including 6xHis tag (SEQ ID NO: 18) (protein)
chain: MKYLLPTAAAGLLLLAAQPAMAQVKLEQSGAEVVKPGASVKLSCKASGFNIKDSYMHWLRQGPGQRLEWIGWIDPENGDTEYAPKFQGKATFTTDTSANTAYLGLSSLRPEDTAVYYCNEGTPTGPYYFDYWGQGTLVTVSSGGGGSGGGGSGGGGSENVLTQSPSSMSVSVGDRVNIACSASSSVPYMHWLQQKPGKSPKLLIYLTSNLASGVPSRFSGSGSGTDYSLTISSVQPEDAATYYCQQRSSYPLTFGGGTKLEIKGGGGSGGGGAEAGITGTWSDQLGDTFIVTAGADGALTGTYENAVGGAESRYVLTGRYDSAPATDGSGTALGWTVAWKNNSKNAHSATTWSGQYVGGADAKINTQWLLTSGTTNANAWKSTLVGHDTFTKVK
ka1 [1]: 6.3E+03 | kd1 [1]: 8.0E−06
